Where two headings read alike, the source gives them in different places.
Legend:
HepG2 cells [1] = test: cells; settings: Homo sapiens, HepG2, 48 h, read-out: IC50 HepG2 mean (Table S-1)
[2] = water; cited from earlier work
Description: Curcumin (Cur), a hydrophobic polyphenol compound, is derived from the rhizomes of Curcuma longa. Cur has a wide range of therapeutic properties, such as anti-inflammation[18], anti-oxidant[19], anti-mutagenic[20], and anticancer[21] with low or no intrinsic toxicity to healthy cells. […] Fig. S-6A). […] The minimum gelation ...

mouse NIH 3T3 cells [3] = test: cells; settings: NIH3T3, 48 h, read-out: IC50, mouse fibroblast 3T3 cells
[4] = critical micelle concentration (CMC); format: physicochemical; settings: Fig. S-7
Description: Fig. S-7. The critical micelle concentration (CMC) of A) GA-cur and B) Nap-cur.
Fig. S-8. The LC-MS traces of the GA-Cur (mw=2398.78,1/ mw=1200.6) and the formed
Fig. S-9. The LC-MS traces of the Nap-Cur ([…]/ mw=1058.6) and the formed

HepG2 cells [5] = settings: 48 h
[6] = gelation test with GSH and hydrogel stability; format: physicochemical; settings: PBS pH 7.4, disulfide reduction by GSH
Method: (§1) We therefore tested the gelation ability of the obtained two compounds. […] We then used a rheometer to characterize the resulting hydrogels obtained at 2 h time point. […] We then investigated the fluorescence spectra of the precursors (GA-cur and Nap-cur) and the hydrogels (GA-gel and Nap-gel).
(§2) 3 mg of GA-Cur or Nap-Cur was dissolved in 0.25 mL phosphate buffer saline (PBS) buffer solution (pH = 7.4, adjusted by 1.5 equiv. of Na2CO3). 4equiv. of glutathione (GSH) in 0.05 mL of PBS buffer (pH = 7.4, adjusted by 3.6equiv. of Na2CO3) was added to the above solution.

[7] = solubility of pro-gelators in PBS
Method: as §1, §2

HepG2 cells [8] = test: cellular uptake, HepG2; settings: 25 μM, 4 h, 6-well plates, 2.5 × 10^5 cells per well, DMSO lysis, microplate reader excitation 488 nm
Method: (§3) After being incubated for 24 h in 6-well plates at a density of 2.5 × 10^5 cells per-well, HepG2 cells were treated with 2 mL growth medium containing 25 μM of Cur, GA-Cur, Nap-Cur, or GA + GA-Cur, respectively. In GA + GA-Cur group, 50 μM of GA was used to pre-treat cells for 2 hours. HepG2 cells were then rinsed for three times with PBS following with a treatment with 25 μM of GA-Cur for another 4 hours. After 4 hours’ incubation, cells were washed for three times with PBS to remove excess compounds and 500 μL of DMSO was added to each well to dissolve compounds in cells. The solution were collected after being treated with sonication for 15 min. The amount of compounds in the cells was determined by a microplate reader excitated at 488 nm. The same experiments were performed with 3T3 cells.

mouse NIH 3T3 cells [9] = settings: read-out: IC50, mouse fibroblast 3T3 cells; MTT, 48 h
3T3 cells = test: cellular uptake, 3T3; settings: same experiment as HepG2: 25 μM, 4 h; Fig. S-15
Method: as §3

Row | IC50 (HepG2 cells [1]) | IC50 (HepG2 cells [5]) | SMILES | aqueous solubility [2] | IC50 (mouse NIH 3T3 cells [3]) | critical micelle concentration (CMC) [4] | minimum gelation concentration [6] | well solubilized in phosphate buffer saline at a concentration of [7] | intra-cellular concentration of Cur, HepG2 (HepG2 cells [8]) | IC50 (HepG2 cells [5]; read-out: IC50 against HepG2, MTT) | well solubilized in phosphate buffer saline at a concentration of ([7]; PBS pH = 7.4, 10 mg/mL = 1 wt%, optical image) | IC50 (mouse NIH 3T3 cells [9]) | intra-cellular concentration of Cur, 3T3 (3T3 cells)
1 | 26.5 µM | – | COc1cc(/C=C/C(=O)CC(=O)/C=C/c2ccc(O)c(OC)c2)ccc1O [Cur, Curcumin] | ≈ 11 ng/ml | 28 µM | – | – | – | – | – | – | – | –
2 | – | 10.7 µM | COc1cc(/C=C/C(=O)CC(=O)/C=C/c2ccc(OC(=O)CCCC(=O)NCCCC[C@H](NC(=O)[C@H](Cc3ccc(O)cc3)NC(=O)[C@H](Cc3ccccc3)NC(=O)[C@H](Cc3ccccc3)NC(=O)CNC(=O)[C@@]3(C)CC[C@]4(C)CC[C@]5(C)C(=CC(=O)[C@@H]6[C@@]7(C)CC[C@H](O)C(C)(C)[C@@H]7CC[C@]65C)[C@@H]4C3)C(=O)N[C@@H](CCC(=O)O)C(=O)NCCSSCCNC(=O)CCC(=O)N[C@@H](CCC(=O)O)C(=O)N[C@@H](CCCNC(=N)N)C(=O)NCC(=O)N[C@@H](CC(=O)O)C(=O)O)c(OC)c2)ccc1O [GA-Cur, GA–GFFYK(Cur)E-ss-ERGD] | – | – | about 1105 μg/mL | about 0.75 wt% | ≥ 10 mg/mL | – | – | – | – | –
3 | – | – | COc1cc(/C=C/C(=O)CC(=O)/C=C/c2ccc(OC(=O)CCCC(=O)NCCCC[C@H](NC(=O)[C@H](Cc3ccc(O)cc3)NC(=O)[C@H](Cc3ccccc3)NC(=O)[C@H](Cc3ccccc3)NC(=O)CNC(=O)Cc3ccc4ccccc4c3)C(=O)N[C@@H](CCC(=O)O)C(=O)NCCSSCCNC(=O)CCC(=O)N[C@@H](CCC(=O)O)C(=O)N[C@@H](CCCNC(=N)N)C(=O)NCC(=O)N[C@@H](CC(=O)O)C(=O)O)c(OC)c2)ccc1O [Nap-Cur, Nap–GFFYK(Cur)E-ss-ERGD] | – | – | ~1349 µg/mL | – | – | 670 ng/well | 29.7 µM | ≥ 10 mg/mL | 28.7 µM | 641 ng/well

Reference: publication PMC5345068, “A Glycyrrhetinic Acid-Modified Curcumin Supramolecular Hydrogel for liver tumor targeting therapy” (Scientific Reports, 2017)
